PMC8489103, “The collagen structure of C1q induces wound healing by engaging discoidin domain receptor 2” (Molecular Medicine, 2021)
Where no end group is shown, it is not given here. The star is where a group is joined. Biotin = O=C1N[C@H]2[C@H](CS[C@H]2CCCCC(=O)*)N1

B1: Recombinant human DDR2 possessing the ectodomain of DDR2 (Gln24-Arg399) with 6 × His-tag on C-terminal (domain or fragment, UniProt Q16832 24-399, looked up)
chain: QVNPAICRYPLGMSGGQIPDEDITASSQWSESTAAKYGRLDSEEGDGAWCPEIPVEPDDLKEFLQIDLHTLHFITLVGTQGRHAGGHGIEFAPMYKINYSRDGTRWISWRNRHGKQVLDGNSNPYDIFLKDLEPPIVARFVRFIPVTDHSMNVCMRVELYGCVWLDGLVSYNAPAGQQFVLPGGSIIYLNDSVYDGAVGYSMTEGLGQLTDGVSGLDDFTQTHEYHVWPGYDYVGWRNESATNGYIEIMFEFDRIRNFTTMKVHCNNMFAKGVKIFKEVQCYFRSEASEWEPNAISFPLVLDDVNPSARFVTVPLHHRMASAIKCQYHFADTWMMFSEITFQSDAAMYNNSEALPTSPMAPTTYDPMLKVDDSNTR
notes: discoidin domain receptor 2 (DDR2), human, ectodomain Gln24-Arg399; also called sDDR2; sDDR; source: bought: R&D Systems (2538-DR); not shown: 6xHis, C-terminal, kept

What was measured:
Details in all cases: both partners purified
[1] = target: B1; assay: ELISA; C1qA peptide or control peptide coated at 8 μg/mL; sDDR2 (0.1, 0.5, 2, 8 μg/mL) added, RT, 2 h; detected with AP-conjugated anti-6x-His
[2] = target: T1, NS0-derived recombinant mouse DDR2-Fc chimera protein (mouse, UniProt Q62371 24-399); assay: far-Western, overlay or dot blot; DDR2-Fc, DDR1-Fc or Fc (20 μg per spot) blotted on nitrocellulose; biotinylated C1qA peptide (200 nM) in 3% skim milk, RT, 2 h; detected with streptavidin
T1 construct: discoidin domain receptor 2 (DDR2), mouse, ectodomain Gln24-Arg399; also called 7479-DR; source: bought: R&D Systems (7479-DR), NS0-derived; not shown: Fc (mouse IgG2A, Glu98-Lys330), C-terminal, kept
T1 sequence (looked up): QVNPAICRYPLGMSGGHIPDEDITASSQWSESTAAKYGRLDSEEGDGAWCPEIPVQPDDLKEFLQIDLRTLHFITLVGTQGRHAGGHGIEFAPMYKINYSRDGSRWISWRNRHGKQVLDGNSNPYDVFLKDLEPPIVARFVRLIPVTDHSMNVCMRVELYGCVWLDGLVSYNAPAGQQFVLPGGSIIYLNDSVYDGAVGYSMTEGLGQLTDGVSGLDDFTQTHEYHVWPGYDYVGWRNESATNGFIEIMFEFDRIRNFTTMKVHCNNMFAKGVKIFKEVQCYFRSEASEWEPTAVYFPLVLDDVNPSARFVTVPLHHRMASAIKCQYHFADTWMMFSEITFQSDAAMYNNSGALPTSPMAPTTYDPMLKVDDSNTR

human C1q protein = target: T2, human C1q protein (human, UniProt P02745 23-245; P02746 28-253; P02747 29-245); assay: SPR; Biacore 3000; sDDR2 immobilised on CM5 chip; C1q 0, 2.5, 5, 10, 20, 40 μg/mL as analyte; 10 mM HEPES pH 7.4, 25 °C, 10 μL/min
T2 construct: complement C1q subcomponent subunit A, human; complement C1q subcomponent subunit B, human; complement C1q subcomponent subunit C, human; the bought protein is purified from human serum; source: bought: Sigma-Aldrich (C1740); for stimulation of cells Complement Technologies (A099); copies: + +
T2 sequence (P02745 23-245, chain 1 of 3): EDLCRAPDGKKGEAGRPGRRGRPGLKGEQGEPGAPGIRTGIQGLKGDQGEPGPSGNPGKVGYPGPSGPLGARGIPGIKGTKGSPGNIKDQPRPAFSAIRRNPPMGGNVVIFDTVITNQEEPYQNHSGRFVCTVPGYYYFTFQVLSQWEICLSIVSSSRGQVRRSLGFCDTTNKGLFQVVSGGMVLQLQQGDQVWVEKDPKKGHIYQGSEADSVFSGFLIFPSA
T2 sequence (P02746 28-253, chain 2 of 3): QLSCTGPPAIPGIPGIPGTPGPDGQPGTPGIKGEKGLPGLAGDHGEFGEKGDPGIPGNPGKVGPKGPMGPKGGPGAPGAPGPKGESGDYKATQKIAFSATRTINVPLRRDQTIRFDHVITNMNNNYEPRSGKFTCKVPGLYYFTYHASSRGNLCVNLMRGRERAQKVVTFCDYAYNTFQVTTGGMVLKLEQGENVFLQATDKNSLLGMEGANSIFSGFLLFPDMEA
T2 sequence (P02747 29-245, chain 3 of 3): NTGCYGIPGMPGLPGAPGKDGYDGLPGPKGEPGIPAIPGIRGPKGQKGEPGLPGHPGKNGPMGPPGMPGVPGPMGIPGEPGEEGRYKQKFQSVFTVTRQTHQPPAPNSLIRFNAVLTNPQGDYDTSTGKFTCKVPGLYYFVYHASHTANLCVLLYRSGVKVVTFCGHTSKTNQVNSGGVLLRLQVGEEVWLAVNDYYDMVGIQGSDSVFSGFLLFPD

Binder	binding result [1]	binding result [2]	Kd (human C1q protein) [nM]
Biotin-GSKGEQGEPGAPGI (first two residues of the printed peptide; also called C1q collagen tail peptide; biotinylated C1qA peptide; source: synthetic peptide (GenScript)) [C1qA peptide (Biotin-GSKGEQGEPGAPGI)]	binds	binds	
B1			183
